From the DeepSol protein solubility set come the findings set out here.

The data set is described as follows: soluble on expression in E. coli; label from the status in PepcDB or PDB records.
With “MSLRMIGKVLELLNCKETEREINRRKFSICDDVNFILNLPIGYLKDVISPLENYLSKHMTNNFSRLTRVVPNDYEDTQLHFSKFFLNLYSSAISEIPRFNILTSLVILDEYRMMPDKALIAAADELARNGINAIFSTSTPSVFFEEEIVSRFRNRRVVSISIVNEYGQAVEGRDCVKKGEGYYQCRGSYEVIELIEDFDIRDLDYEIIKGEEVFKVKEPFTLFVNSWEKALRLYRKLREERNTEVCLLNSSDECKVTITPKIMPTRFNVVSEISSLPTIVARSGIINDKDKIYVWIDRDNYDTVTESTLNLLSNIKVCLKHPFGCNGKMGYANKTVLKPNIDERLIKRLSEISHLMDRREFEKVTEVFSDFVTVDLFTDKEKITTVPPEFVYENKKKILYYGNSCVYTYFTDGEKCSKIVYNWLEGGGVSWLKRNLARAYKNYVEEEGKKKVFLGLKARDVEEWIEGHHHHHH”, the “soluble on expression in E. coli” value was “not soluble”.
Then “MDETTIRRLTEEDVDIFRAMRLEALRTEPAAYASTAADWEKLSADEWRTRLTQNNVFAAFWNDAPVGIMGLMRQGSSKMAHRATLIMVYVRAEARGTGIARALLEAVKSFAGDNGIRQIELAVSAENPAAASFYKRAGFSQIGCVPGGILHEGREIDDIMMACRVDAEGKE”, with “not soluble”.
“MGSDKIHHHHHHMMKKIEEARTFISERTNLSPDILIILGSGFGPFIEKVEDPVIIDYKDIPHFPQPTVEGHSGKLVFGRISDKPVMIMAGRFHLYEGHDPATVAFPVYLAKYVGVKGVVVTNAAGAINPEFKPGEIILVRDIINFMFRNPLRGPNDEKIGPRFPDMSSVVDPEWARKIQERLSLKEGVYIGVLGPSYETPAEIRVFEKLGADLVGMSTVPEVIAAKHCGLKVVVFSCVTNMAAGITHGRLSHEEVVRTTKMAQGKIEKALTTAVEVF”: the “soluble on expression in E. coli” value is listed as “soluble”.
Then “MRMIVGHGIDIEELASIESAVTRHEGFAKRVLTALEMERFTSLKGRRQIEYLAGRWSAKEAFSKAMGTGISKLGFQDLEVLNNERGAPYFSQAPFSGKIWLSISHTDQFVTASVILEENHES”, with “soluble”; and “MTRPVTLSEPHFSQHTLNKYASLMAQGNGYLGLRASHEEDYTRQTRGMYLAGLYHRAGKGEINELVNLPDILGMEIAINGEVFSLSREAWQRELDFASGELRRSVVWRTSNGAGYTIASRRFVSADQLPLIALEITIMPLDADASVLISTGIDATQTNHGRQHLDETQVRVFGQHLMQGIYTTQDGRSDVAISCCCQVSGDVQQCYTAKERRLLQHTSTQLHAGETVTLQKLVWIDWRDDRQAALDEWGSVSLRQLEMCAQQSYDQHLAASTENWRQWWQKRRITVNGGDAHDQQALDYALYHLRIMTPAHGERSSIAAKGLTGEGYKGHVFWDTEVFLLPFHLFSDPTVARSLLRYRWHNLPGAQEKARRNGWQGALFPWESARSGEEETPEFAAINIRTGLRQKVASAQAEHHLVADIAWAVIQYWQTTGDESFIAHEGMALLLETAKFWISRAVRVNDRLEIHDVIGPDEYTEHVNNNAFTSYMVYYNVQQALSIARQFGCSDDAFIHRAEMFLKELRLPEIQPDGVLPQDDSFMTKPAINLAKYKAAAGKQTILLDYSRAEVNEMQILKQADVVMLNYMLPEQFSSASCLANLQFYEPRTIHDSSLSKAIHGIVAARCGLLTQSYQFWREGTEIDLGADPHSCDDGIHAAATGAIWLGAIQGFAGVSVRDGELHLNPALLEQWQQLSFPLFWQGCELQVTLDAQRIAIRTSAPVSLRLDGQLISVAEESVFCLGDFILPFNGTATTHQEDE”, with “not soluble”.
Then “MKIESSCPLPVKPGMTVAQATEACYQSELGADTYVEEFEGWVDIEALEPGDPGRKIVCCVEDGICITVEMKYMELPITDTFYGVDLNCQPGEGWMTSLERVARALEDKGLTVVKRDSYILLPDVFVAIEVGETIGWFDPAYWSREEFLEEAILA”, with “not soluble”; and “AWQVNTAYTAGQLVTYNGKTYKCLQPHTSLAGWEPSNVPALWQLQ”, with “soluble”; and “NLDALREVLECPICMESFTEEQLRPKLLHCGHTICRQCLEKLLASSINGVRCPFCSKITRITSLTQLTDNLTVLK”, with “soluble”.
Then “MSLNDEMKGKSGKVKVMYVRSDDDSDKRTHNPRTGKGGGRPGKSRADGGRRPARDDKQSQPRDRKWEDSPWRTVSRAPGDETPEKADHGGISGKSFIDPEVLRRQRAEETRVYGENACQALFQSRPEAIVRAWFIQSVTPRFKEALRWMAANRKAYHVVDEAELTKASGTEHHGGVCFLIKKRNGTTVQQWVSQAGAQDCVLALENESNPHNLGGMMRSCAHFGVKGVVVQDAALLESGAAIRTAEGGAEHVQPITGDNIVNVLDDFRQAGYTVVTTSSEQGKPLFKTSLPAKMVLVLGQEYEGLPDAARDPNDLRVKIDGTGNVAGLNISVATGVLLGEWWRQNKAEGHHHHHH”, with “soluble”.
Regarding “MLSINPNEQTEKDNYKLLTGSIIPRPVAFVTSVTKEGVLNGAPYSYFNIVAANPPLISVSVQRKAGERKDTSRNAIEKGEFVVHISDESYVAAINETAANLPPNESEIELAKLTPIESEVISVPGVKEANIRMECVLERAIPLGGTEDSPACDLLIGRVVRFHVAEHLYEKGRIHAEGLKPISRLAGHNYAKLGEQFELVRPI”, the “soluble on expression in E. coli” value was “soluble”.
Then “MGHHHHHHGGHMSLIDLHIHSNYSDGQGSVEEIARRAKERGLKAIAIVDHSIELPFGLTEKKARMREIEIENAASLYGIKIYSGIECSINAAGEIVLPDFDFDFIIASVHEFVYGQAYYERVIRCLESHDVDVLGHPFSPLFGFDGRLAEMDEKLLDVVEERGVAVELNSSHKSPQDEFLQLCRDRKIAYSIGSDAHSLSGVGEVGWSVEKAKRYMAGAKLFTPEGGS”, with “soluble”.
Then “QWGSMRMPSDRISSGMAFSSVAQEAGFQNDDIILAVDGRPVDALASGFMRSVIQARQVEVLRQGRREIVHVPHDMMKRVLKANSGFMSIQVPFVIDSVMPQGTAYACQLKAGDSITAVNGKLMPDASDVIGAIRSHAGDTIALSIARAGEELTITLPVDTGGLIGVSLRPLDAIYTIDHIRYSLFEAIPAGIAQGMGTMRSYVSDMKYVFTKEGAGQIGGFGTLGSLFPASWNWPQFWAMTALLS”, with “not soluble”; and “MRKLKITELNRISAEEFKQAEKLPLVVVLDDIRSLHNIGSVFRTSDAFRIECIYLCGITATPPHPEMHKTALGAEFTVDWKYVNNAVDAVDNLRKEGYIVYSIEQAEGSIMLDRLELDKTKKYAIVMGNEVKGVQQEVIDHSDGCIEIPQYGTKHSLNVSVTTGIVIWDLFKKLR”, with “not soluble”.
Then “MSQSTSAGGSQAVAQNPGAKLGFSMRSASIASDSVPCESGLCEAPPGVLSGAGTVFCESTYKVKIDNETVWQVPTRLKFVKKVGSGAYGCVASFEDTSASASEQGTEDDPSRREQSGETRTSQTGSAEGDSGTNKKVAVKKIGDLFRDLIDAKRIYREIKILKELKHENIINLVEILDPLTPDFEDIYLVSDLMDTDLHRVIYSRQPLTPEHHQYFLYQLLLGLSFLHQADIIHRDLKPSNILVNLNCDIKICDFGLARGLNMNPAPPPNLLPPATHRAGPAAAQDVVCTYTPPDNLSGAGKWGDQKLAAAAGAGSIAATRLVRLAHQQGSSLIGAQHQVPAKTDDASDDMELTDYVVTRWYRPPEILISPFCYSKPVDLWSVGCIFAELLGRRALFAGKDHFDQLRRIVRVLGRPSTAEINKVANEGRGRHFNNPSKGTSNTKRKRSEAARRFIESLPNSDPYKLEDLFPDASKAALDLLSNLLTFDPAKRITVQEALRHEYFEGLHSVEDEPTVTTPVNWSFDNFVPTKR”, with “soluble”.
“EGFKKLELNYMKERSYEEAKEYLDRALKNSVLKRVRGLDKVGIICSGGVDSSLIAKLASLYCEVILYAVGTENSEDLIYAERLAKDLNLKLRKKIISEEEYEEYVFKVAKAIDEVDLMKIGVGIPIYVASEMANEDGLKVVLSGQGADELFGGYARHERIYRERGEEELKKELLKDVYNLYKVNLERDDHCTMANGVELRVPFLDEEVVEIALSIPIEYKMSELSNRPYAESNISLKSEPINGLKNTNLNIKCVRSVRKKILRDVASQYLPDYIAYRPKKAAQYGSG”: the “soluble on expression in E. coli” value is “soluble”.
Then “MSGATEMAVSPDGKEVAFILRGDVYVTSVEYKTTKQVTNTPCQERGIDFAPDGRTLVYASERGGLWQLYTSTIVRKDEKQFTYATELKEERLTNSDIASFNPKYSPDGKEIAFLENRTAIRVINLKTKKVRTVMDAQYQYSYSDGDQWFEWSPDSKWILSEFIGIGGWNNKDIVLLNADGKGEMHNLTESGYSDGNAKWVLGGKAMVWFSDRAGYRSHGSWGAQYDAYIMFFDVDALEHHHHHH”, with “not soluble”; and “MKKNLLAIALGSVIALTAAPYSLAANDSTIQSSADYSQLVTKRQVVDQLLNDAVEAFKSPARISHAGFTAKMPSNMEIVTDRLLEAYQLEPYRTDLLISAANAQIYNKNVDRAIELFEQALAVAPDDVDLHAYLAVWQRFKGNQAESDQHMATLAKLNAGKAADINRIFDTVDRVLATPLKEKADKGKLDNKGAIVTLGYALNPDGSMHQILVERLETTLAMAKANPDAIIILTGGVPKNHKTEGKLMADWLIGKGVSKDRIIEENYATSTVGNALFSSYALARHNIKHATIISSASHVRRGQTLFEIASWQTGPQGITFDTVSYPDKPLKDLAKASESELLGIYRDALRTYGMWSYRSYPLESRLEHHHHHH”, with “soluble”.
Then “MGSDKIHHHHHHMISKLAEIVGEEWVISGDEAKLYSYPAFIPLKIEPPVVVLPGSEEEVISLVNFLNENNIKYIVRGSGTSLSGATTPTQGEVVISLTRLNRIYSLDNFEITVGPGLANFLINKTLGNSNLFYAPDPSSYVVSSIGGNISHDSGGMHTPKYGTTFDSIIRLKVLLSNGHVEEIGSSNFFDPTSIFVGAEGTLGVILRATLRLFPKPEVSKTILASFNSIDDAGKAVVSVYKAGVTPAAMEFLDKNSIIAIENTQYKANYPMAEAILLIELDGYSVNVEEEEVRVVSAIRNNNGEVFIPKDEEEKNRWWWGRKGAFPSFAYYSPAYLTLDANVPRSTLPTMLRFTYEISKKYGLPVANSFHAGDGTLHPLIGFDPKNADETIKAIKAAEEITKLAIKVGGVPSGEHGIGIEKIKFMKLYYSEDDLTLMRRLKATFDPKRLLNPCKLIPPAKNEICNTVNRIHTYLLEGDI”, with “not soluble”; and “GSHMASMLPEETILDKLPKDFQERITSSKWKDRVEALEEFWDSVLSQTKKLKSTSQNYSNLLGIYGHIIQKDANIQAVALAAQSVELICDKLKTPGFSKDYVSLVFTPLLDRTKEKKPSVIEAIRKALLTICKYYDPLASSGRNEDMLKDILEHMKHKTPQIRMECTQLFNASMKEEKDGYSTLQRYLKDEVVPIVIQIVNDTQPAIRTIGFESFAILIKIFGMNTFVKTLEHLDNLKRKKIEETVKTL”, with “soluble”; and “MGSDKIHHHHHHMVNFSYRVFAAVVEKKTFFHAAESLNVTPSAVSHSISQLENELGFPLFLRNHSGVELTNDGKTVLPVIQAILNTEEELYQVSASIKGLNSGRIRIGAFSSVCINWLPTIIRRFKNQYPQVEVTVFQGNFNQIADGVSNGSIDIGFSSLPVDDKLLVEPLIKDRIYCVAPSDFVPKDKMNVTNQDIGRRRFILQQIDYDRDTKKALDQYNVTPNSLTYSIDDQSILSMVESGLGLGILPELALKKLSGNVHIYPFDKNFARTICLVTNKNLAQAPSTKRMLKEINSFLRSNYKNQFLG”, with “not soluble”.
Consider “SLEKHSWYHGPVSRNAAEYLLSSGINGSFLVRESESSPGQRSISLRYEGRVYHYRINTASDGKLYVSSESRFNTLAELVHHHSTVADGLITTLHYPAPKRNKPTVYGVSPNY”, for which the “soluble on expression in E. coli” value is recorded as “soluble”.
